The values that follow come from US20260242735A1 (UNIVERSIT T BASEL, published 2026).

The target in assay [1] is human CD33 F280A (human, UniProt P20138 18-364). In words: flow cytometry, HEK293-T, alanine scan.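 Also: transiently transfected HEK293-T cells expressing single alanine mutants of human CD33 (alanine residues changed to serine), antibody binding fluorescence minus background, relative to wild type CD33, mean of duplicates.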
Experimental: (§1) An alanine scan on human CD33 was performed to the determine the residues on CD33 that are involved in binding to the antibodies investigated. […] Briefly, a mutation library of CD33 was created by high-throughput, site-directed mutagenesis. Each residue was individually mutated to alanine, with alanine codons mutated to serine. The mutant library was arrayed in 384-well microplates and transiently transfected into HEK293-T. Following transfection, cells were incubated with the indicated antibodies (IgG or Fab) at concentrations pre-determined using an independent immunofluorescence titration curve on wild type CD33. […] Binding of each antibody to each mutant clone was determined in duplicates. For each point, background fluorescence was subtracted from the raw data, which were then normalized to antibody reactivity with wild type CD33.
(§2) Critical residues for antibody binding (outlined in dark grey) were residues whose mutations led to a binding of the test Abs of less than 20%. Additional secondary residues (outlined in light grey) were identified that led to a binding of the test Abs of between 20 and 40% as compared to the wild type CD33.
Assay [2] addresses human CD33 R286A (human, UniProt P20138 18-364). The assay is described as follows: flow cytometry, HEK293-T, alanine scan.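 Also: transiently transfected HEK293-T cells expressing single alanine mutants of human CD33 (alanine residues changed to serine), antibody binding fluorescence minus background, relative to wild type CD33, mean of duplicates.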
Experimental: as §1, §2
For assay [3], the target named is human CD33 V294A (human, UniProt P20138 18-364). In words: flow cytometry, HEK293-T, alanine scan.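 Also: transiently transfected HEK293-T cells expressing single alanine mutants of human CD33 (alanine residues changed to serine), antibody binding fluorescence minus background, relative to wild type CD33, mean of duplicates.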
Experimental: as §1, §2
For assay [4], the target named is human CD33 R296A (human, UniProt P20138 18-364). The assay is described as follows: flow cytometry, HEK293-T, alanine scan.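 Also: transiently transfected HEK293-T cells expressing single alanine mutants of human CD33 (alanine residues changed to serine), antibody binding fluorescence minus background, relative to wild type CD33, mean of duplicates.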
Sequence of human CD33 R296A (P20138 18-364 R296A limits assumed): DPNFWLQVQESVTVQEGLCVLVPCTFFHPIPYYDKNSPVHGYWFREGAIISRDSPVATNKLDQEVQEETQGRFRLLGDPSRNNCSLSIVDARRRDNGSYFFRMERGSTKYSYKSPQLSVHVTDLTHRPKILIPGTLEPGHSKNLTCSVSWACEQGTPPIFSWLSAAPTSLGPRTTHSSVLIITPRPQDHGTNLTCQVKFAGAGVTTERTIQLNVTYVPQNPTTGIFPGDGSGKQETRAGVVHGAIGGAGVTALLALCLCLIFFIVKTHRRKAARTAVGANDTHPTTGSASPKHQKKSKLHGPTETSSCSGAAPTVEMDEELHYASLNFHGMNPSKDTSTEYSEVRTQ
Experimental: as §1, §2
The target of assay [5] is human CD33 H300A (human, UniProt P20138 18-364). The assay is described as follows: flow cytometry, HEK293-T, alanine scan.
Experimental: as §1, §2
The target in assay [6] is human CD33 G304A (human, UniProt P20138 18-364). In words: flow cytometry, HEK293-T, alanine scan.
Experimental: as §1, §2
The target in assay [7] is human CD33 S305A (human, UniProt P20138 18-364). The assay is described as follows: flow cytometry, HEK293-T, alanine scan.
Sequence of human CD33 S305A (P20138 18-364 S305A limits assumed): as the sequence (P20138 18-364 R296A limits assumed) above, with A279R, S288A counted along it
Experimental: as §1, §2
The target of assay [8] is human CD33 S307A (human, UniProt P20138 18-364). In words: flow cytometry, HEK293-T, alanine scan.
Experimental: as §1, §2
In assay [9] the target is human CD33 H310A (human, UniProt P20138 18-364). The assay is described as follows: flow cytometry, HEK293-T, alanine scan.
Sequence of human CD33 H310A (P20138 18-364 H310A limits assumed): as the sequence (P20138 18-364 R296A limits assumed) above, with A279R, H293A counted along it
Experimental: as §1, §2
Assay [10] concerns the target human CD33 K312A (human, UniProt P20138 18-364). The assay is described as follows: flow cytometry, HEK293-T, alanine scan.
Experimental: as §1, §2
Assay [11] has as its target human CD33 S314A (human, UniProt P20138 18-364). The assay is described as follows: flow cytometry, HEK293-T, alanine scan.
Experimental: as §1, §2
For assay [12], the target named is human CD33 L316A (human, UniProt P20138 18-364). In words: flow cytometry, HEK293-T, alanine scan.
Sequence of human CD33 L316A (P20138 18-364 L316A limits assumed): as the sequence (P20138 18-364 R296A limits assumed) above, with A279R, L299A counted along it
Experimental: as §1, §2
Assay [13] has as its target human CD33 H317A (human, UniProt P20138 18-364). The assay is described as follows: flow cytometry, HEK293-T, alanine scan.
Experimental: as §1, §2
In assay [14] the target is human CD33 P319A (human, UniProt P20138 18-364). The assay is described as follows: flow cytometry, HEK293-T, alanine scan.
Experimental: as §1, §2
The target in assay [15] is human CD33 T320A (human, UniProt P20138 18-364). In words: flow cytometry, HEK293-T, alanine scan.
Sequence of human CD33 T320A (P20138 18-364 T320A limits assumed): as the sequence (P20138 18-364 R296A limits assumed) above, with A279R, T303A counted along it
Experimental: as §1, §2
For assay [16], the target named is human CD33 S323A (human, UniProt P20138 18-364). In words: flow cytometry, HEK293-T, alanine scan.
Experimental: as §1, §2
The target in assay [17] is human CD33 S324A (human, UniProt P20138 18-364). The assay is described as follows: flow cytometry, HEK293-T, alanine scan.
Experimental: as §1, §2
Assay [18] has as its target human CD33 S326A (human, UniProt P20138 18-364). The assay is described as follows: flow cytometry, HEK293-T, alanine scan.
Experimental: as §1, §2
In assay [19] the target is human CD33 A272S (human, UniProt P20138 18-364). In words: flow cytometry, HEK293-T, alanine scan.
Sequence of human CD33 A272S (P20138 18-364 A272S limits assumed): as the sequence (P20138 18-364 R296A limits assumed) above, with A255S, A279R counted along it
Experimental: as §1, §2
Assay [20] addresses human CD33 L343A (human, UniProt P20138 18-364). In words: flow cytometry, HEK293-T, alanine scan.
Experimental: as §1, §2
Assay [21] deals with human CD33 L273A (human, UniProt P20138 18-364). The assay is described as follows: flow cytometry, HEK293-T, alanine scan.
Experimental: as §1, §2
Assay [22] has as its target human CD33 F345A (human, UniProt P20138 18-364). The assay is described as follows: flow cytometry, HEK293-T, alanine scan.
Experimental: as §1, §2
For assay [23], the target named is human CD33 C274A (human, UniProt P20138 18-364). The assay is described as follows: flow cytometry, HEK293-T, alanine scan.
Experimental: as §1, §2
Assay [24] addresses human CD33 F44V (human, UniProt P20138 18-364). In words: flow cytometry on transfected cells, IgG.
Experimental: as §1
(§3) Antibodies were screened for binding to the human CD33 variants in IgG format. […] For each mutation, background fluorescence was subtracted from the raw data, which were then normalized to antibody reactivity with wild-type CD33.
Assay [25] deals with human CD33 F44D (human, UniProt P20138 18-364). The assay is described as follows: flow cytometry on transfected cells, IgG.
Sequence of human CD33 F44D (P20138 18-364 F44D limits assumed): as the sequence (P20138 18-364 R296A limits assumed) above, with F27D, A279R counted along it
Experimental: as §1, §3
The target of assay [26] is human CD33 F44T (human, UniProt P20138 18-364). The assay is described as follows: flow cytometry on transfected cells, IgG.
Sequence of human CD33 F44T (P20138 18-364 F44T limits assumed): as the sequence (P20138 18-364 R296A limits assumed) above, with F27T, A279R counted along it
Experimental: as §1, §3
In assay [27] the target is human CD33 H45Y (human, UniProt P20138 18-364). In words: flow cytometry on transfected cells, IgG.
Experimental: as §1, §3
For assay [28], the target named is human CD33 I47S (human, UniProt P20138 18-364). In words: flow cytometry on transfected cells, IgG.
Sequence of human CD33 I47S (P20138 18-364 I47S limits assumed): as the sequence (P20138 18-364 R296A limits assumed) above, with I30S, A279R counted along it
Experimental: as §1, §3
The target of assay [29] is human CD33 I47R (human, UniProt P20138 18-364). The assay is described as follows: flow cytometry on transfected cells, IgG.
Experimental: as §1, §3
For assay [30], the target named is human CD33 I47N (human, UniProt P20138 18-364). In words: flow cytometry on transfected cells, IgG.
Sequence of human CD33 I47N (P20138 18-364 I47N limits assumed): as the sequence (P20138 18-364 R296A limits assumed) above, with I30N, A279R counted along it
Experimental: as §1, §3
Assay [31] addresses human CD33 P48V (human, UniProt P20138 18-364). In words: flow cytometry on transfected cells, IgG.
Experimental: as §1, §3
The target of assay [32] is human CD33 P48F (human, UniProt P20138 18-364). In words: flow cytometry on transfected cells, IgG.
Experimental: as §1, §3
For assay [33], the target named is human CD33 P48S (human, UniProt P20138 18-364). The assay is described as follows: flow cytometry on transfected cells, IgG.
Experimental: as §1, §3
Assay [34] deals with human CD33 T42K (human, UniProt P20138 18-364). In words: flow cytometry on transfected cells, IgG.
Sequence of human CD33 T42K (P20138 18-364 T42K limits assumed): as the sequence (P20138 18-364 R296A limits assumed) above, with T25K, A279R counted along it
Experimental: as §1, §3
The target in assay [35] is human CD33 Y50H (human, UniProt P20138 18-364). In words: flow cytometry on transfected cells, IgG.
Experimental: as §1, §3
Assay [36] concerns the target human CD33 Y50R (human, UniProt P20138 18-364). The assay is described as follows: flow cytometry on transfected cells, IgG.
Experimental: as §1, §3
The target in assay [37] is human CD33 Y50P (human, UniProt P20138 18-364). In words: flow cytometry on transfected cells, IgG.
Sequence of human CD33 Y50P (P20138 18-364 Y50P limits assumed): as the sequence (P20138 18-364 R296A limits assumed) above, with Y33P, A279R counted along it
Experimental: as §1, §3

Sequence of human CD33 P48V (P20138 18-364 P48V limits assumed): as the sequence (P20138 18-364 R296A limits assumed) above, with P31V, A279R counted along it
Sequence of human CD33 R286A (P20138 18-364 R286A limits assumed): as the sequence (P20138 18-364 R296A limits assumed) above, with R269A, A279R counted along it

B1: Refmab #5 (antibody, V domains shown)
VH: QVQLVQSGAEVKKPGASVKVSCKASGYTFTNYDINWVRQAPGQGLEWIGWIYPGDGSTKYNEKFKAKATLTADTSTSTAYMELRSLRSDDTAVYYCASGYEDAMDYWGQGTTVTVSS
VL: DIQMTQSPSSLSASVGDRVTINCKASQDINSYLSWFQQKPGKAPKTLIYRANRLVDGVPSRFSGSGSGQDYTLTISSLQPEDFATYYCLQYDEFPLTFGGGTKVEIK
notes: The alanine scan used IgG or Fab
For the molecule B1, the “Mean % WT Binding” value was 124 % WT binding in [1]; 97.5 % WT binding in assay [2]; 84.6 % WT binding in assay [3]; 99.5 % WT binding in [4]; 92.8 % WT binding in assay [5]; 79.1 % WT binding in assay [6]. The “Mean % WT Binding” value was 103 % WT binding in assay [7]; 83 % WT binding in [8]; 91.3 % WT binding in assay [9]; 94.7 % WT binding in assay [10]; 112 % WT binding in assay [11]; 79.5 % WT binding in assay [12]. Also, the “Mean % WT Binding” value in [13] turned out to be 71.9 % WT binding; in assay [14], 70 % WT binding; in assay [15] it was 121 % WT binding; in assay [16], 113 % WT binding; in assay [17], 96.6 % WT binding; in assay [18], 107 % WT binding. Also, the “Mean % WT Binding” value in assay [19] came to 110 % WT binding; in assay [20], 77.8 % WT binding; in [21], 102 % WT binding; in assay [22], 86.4 % WT binding; in assay [23] it was 87.4 % WT binding.

B2: Refmab #5 (antibody, human IgG1, V domains shown)
VH: B1 VH
VL: B1 VL
B2: the “Mean % WT Binding” value turned out to be 97.7 % WT binding in [24]; 111 % WT binding in [25]; 92.4 % WT binding in [26]; 94.2 % WT binding in assay [27]; 98.2 % WT binding in assay [28]; 94.6 % WT binding in [29]. Further, the “Mean % WT Binding” value in assay [30] came to 88 % WT binding; in assay [31] it was 53.5 % WT binding; in assay [32], 6 % WT binding; in assay [33], 43 % WT binding; in assay [34], 79.5 % WT binding; in assay [35] it was 7.1 % WT binding. Further, the figures for the “Mean % WT Binding” value in assay [36] and in assay [37] were 47 % WT binding and 43.4 % WT binding, respectively.

B3: Refmab #6 (antibody, V domains shown)
VH: QVQLQQPGAEVVKPGASVKMSCKASGYTFTSYYIHWIKQTPGQGLEWVGVIYPGNDDISYNQKFQGKATLTADKSSTTAYMQLSSLTSEDSAVYYCAREVRLRYFDVWGQGTTVTVSS
VL: EIVLTQSPGSLAVSPGERVTMSCKSSQSVFFSSSQKNYLAWYQQIPGQSPRLLIYWASTRESGVPDRFTGSGSGTDFTLTISSVQPEDLAIYYCHQYLSSRTFGQGTKLEIK
notes: as for B1
On to B3, for which the “Mean % WT Binding” value amounted to 106 % WT binding in [1]; 95.6 % WT binding in [2]; 104 % WT binding in assay [3]; 102 % WT binding in [4]; 101 % WT binding in assay [5]; 100 % WT binding in assay [6]. The “Mean % WT Binding” value in assay [7] turned out to be 86.8 % WT binding; in assay [8] it was 116 % WT binding; in assay [9], 94.9 % WT binding; in assay [10], 94.5 % WT binding; in [11], 96.3 % WT binding; in assay [12] it was 90.5 % WT binding. In addition, the “Mean % WT Binding” value in assay [13] was 95.2 % WT binding; in [14], 85.2 % WT binding; in assay [15], 100 % WT binding; in assay [16], 106 % WT binding; in assay [17] it was 97.1 % WT binding; in assay [18], 88.8 % WT binding. Also, the “Mean % WT Binding” value in assay [19] amounted to 90.9 % WT binding; in assay [20], 101 % WT binding; in assay [21], 104 % WT binding; in [22], 98.4 % WT binding; in assay [23], 92.3 % WT binding.

B4: Refmab #6 (antibody, human IgG1, V domains shown)
VH: B3 VH
VL: B3 VL
Take B4: the “Mean % WT Binding” value in [24] is 98.9 % WT binding; in [25], 107 % WT binding; in assay [26], 93.9 % WT binding; in [27], 84.4 % WT binding; in assay [28] it was 91 % WT binding; in assay [29], 96.9 % WT binding. The “Mean % WT Binding” value was determined as 96.6 % WT binding in assay [30]; 105 % WT binding in assay [31]; 93.8 % WT binding in [32]; 97.2 % WT binding in assay [33]; 91.2 % WT binding in assay [34]; 92.2 % WT binding in [35]. The results for the “Mean % WT Binding” value in assay [36] and in assay [37] were 96.9 % WT binding and 98.1 % WT binding, respectively.
